Reference: publication PMC4763255, “Diversity between mammalian tolloid proteinases: Oligomerisation and non-catalytic domains influence activity and specificity” (Scientific Reports, 2016)

T1: ΔN-chordin (UniProt Q9H2X0 127-955)
T1 construct: chordin, N-terminally truncated form called ΔN-chordin
T1 sequence (looked up): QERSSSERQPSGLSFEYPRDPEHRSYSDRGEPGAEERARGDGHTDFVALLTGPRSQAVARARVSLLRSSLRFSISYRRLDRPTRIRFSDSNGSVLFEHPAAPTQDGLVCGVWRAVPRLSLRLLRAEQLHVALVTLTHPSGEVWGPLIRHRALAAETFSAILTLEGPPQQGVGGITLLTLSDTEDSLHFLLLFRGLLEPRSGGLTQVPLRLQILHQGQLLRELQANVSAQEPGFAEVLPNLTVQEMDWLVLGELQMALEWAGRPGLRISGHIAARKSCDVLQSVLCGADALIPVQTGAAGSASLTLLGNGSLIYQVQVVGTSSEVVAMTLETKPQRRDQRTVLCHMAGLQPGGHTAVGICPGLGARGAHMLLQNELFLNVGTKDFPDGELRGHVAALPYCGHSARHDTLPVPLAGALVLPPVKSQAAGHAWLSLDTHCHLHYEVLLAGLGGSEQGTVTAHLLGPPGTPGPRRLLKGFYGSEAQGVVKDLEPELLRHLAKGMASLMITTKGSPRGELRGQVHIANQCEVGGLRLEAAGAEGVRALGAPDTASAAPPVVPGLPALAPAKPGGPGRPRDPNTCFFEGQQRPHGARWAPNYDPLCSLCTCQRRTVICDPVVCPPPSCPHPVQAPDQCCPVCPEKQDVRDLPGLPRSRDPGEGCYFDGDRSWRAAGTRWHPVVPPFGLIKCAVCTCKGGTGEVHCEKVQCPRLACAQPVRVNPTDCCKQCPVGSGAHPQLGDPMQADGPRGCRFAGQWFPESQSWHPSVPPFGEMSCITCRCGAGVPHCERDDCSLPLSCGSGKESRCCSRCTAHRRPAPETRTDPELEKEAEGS


How the values were obtained:
ΔN-chordin = biological target: T1, ΔN-chordin; test: SPR; tolloid fragments immobilised on a GLC chip by amine coupling, ΔN-chordin injected as analyte at increasing concentrations; ProteOn XPR36; 10 mM HEPES, 150 mM NaCl, 2 mM CaCl2, 0.05% Tween 20, pH 7.4, 25 °C; 1:1 Langmuir model; triplicate; conditions: both partners purified
[1] = biological target: the molecule itself; test: negative-stain electron microscopy, single-particle analysis; TLL-2 ~10 ug/ml in 10 mM HEPES, 500 mM NaCl, 2 mM CaCl2, pH 7.4 on carbon-coated grids, 4% uranyl acetate

Row | Kd (ΔN-chordin) | Binder | stoichiometry N [1]
1 | 0.057 ± 0.003 nM | TLL1 CUB1-CUB2-EGF1 (domain or fragment, UniProt O43897 349-615, looked up, mammalian tolloid like-1 (TLL-1); domains CUB1, CUB2 and EGF1; Cloned at OPPF-UK in pOPINTTGneo; also called TLL1-C1C2E1; C1C2E1 from TLL-1) CGETLQESNGNLSSPGFPNGYPSYTHCIWRVSVTPGEKIVLNFTTMDLYKSSLCWYDYIEVRDGYWRKSPLLGRFCGDKLPEVLTSTDSRMWIEFRSSSNWVGKGFAAVYEAICGGEIRKNEGQIQSPNYPDDYRPMKECVWKITVSESYHVGLTFQSFEIERHDNCAYDYLEVRDGTSENSPLIGRFCGYDKPEDIRSTSNTLWMKFVSDGTVNKAGFAANFFKEEDECAKPDRGGCEQRCLNTLGSYQCACEPGYELGPDRRSCE | –
2 | 0.19 ± 0.02 nM | mTLD CUB4-CUB5 (domain or fragment, UniProt P13497 747-976, looked up, mammalian tolloid (mTLD), product of the Bmp1 gene; domains CUB4 and CUB5; Cloned at OPPF-UK in pOPINTTGneo; also called mTLD-C4C5; C4C5 from mTLD) CDHKVTSTSGTITSPNWPDKYPSKKECTWAISSTPGHRVKLTFMEMDIESQPECAYDHLEVFDGRDAKAPVLGRFCGSKKPEPVLATGSRMFLRFYSDNSVQRKGFQASHATECGGQVRADVKTKDLYSHAQFGDNNYPGGVDCEWVIVAEEGYGVELVFQTFEVEEETDCGYDYMELFDGYDSTAPRLGRYCGSGPPEEVYSAGDSVLVKFHSDDTITKKGFHLRYTST | –
3 | 0.056 ± 0.01 nM | TLL1 CUB4-CUB5 (domain or fragment, UniProt O43897 774-1003, looked up, mammalian tolloid like-1 (TLL-1); domains CUB4 and CUB5; Cloned at OPPF-UK in pOPINTTGneo; also called TLL1-C4C5; C4C5 from TLL-1) CEQKIHSPSGLITSPNWPDKYPSRKECTWEISATPGHRIKLAFSEFEIEQHQECAYDHLEVFDGETEKSPILGRLCGNKIPDPLVATGNKMFVRFVSDASVQRKGFQATHSTECGGRLKAESKPRDLYSHAQFGDNNYPGQVDCEWLLVSERGSRLELSFQTFEVEEEADCGYDYVELFDGLDSTAVGLGRFCGSGPPEEIYSIGDSVLIHFHTDDTINKKGFHIRYKSI | –
4 | – | human mammalian tolloid like-2 (TLL-2) (enzyme, UniProt Q9Y6L7 26-1015, looked up, N-linked glycans (5 predicted from primary sequence; shift with PNGaseF), purified as a secreted protein; predicted mass of a monomer printed as 98.58 kDa; also called mTLL2; mTLL-2) ATTSRTERIWPGGVIPYVIGGNFTGSQRAIFKQAMRHWEKHTCVTFIERTDEESFIVFSYRTCGCCSYVGRRGGGPQAISIGKNCDKFGIVAHELGHVVGFWHEHTRPDRDQHVTIIRENIQPGQEYNFLKMEAGEVSSLGETYDFDSIMHYARNTFSRGVFLDTILPRQDDNGVRPTIGQRVRLSQGDIAQARKLYKCPACGETLQDTTGNFSAPGFPNGYPSYSHCVWRISVTPGEKIVLNFTSMDLFKSRLCWYDYVEVRDGYWRKAPLLGRFCGDKIPEPLVSTDSRLWVEFRSSSNILGKGFFAAYEATCGGDMNKDAGQIQSPNYPDDYRPSKECVWRITVSEGFHVGLTFQAFEIERHDSCAYDYLEVRDGPTEESALIGHFCGYEKPEDVKSSSNRLWMKFVSDGSINKAGFAANFFKEVDECSWPDHGGCEHRCVNTLGSYKCACDPGYELAADKKMCEVACGGFITKLNGTITSPGWPKEYPTNKNCVWQVVAPAQYRISLQFEVFELEGNDVCKYDFVEVRSGLSPDAKLHGRFCGSETPEVITSQSNNMRVEFKSDNTVSKRGFRAHFFSDKDECAKDNGGCQHECVNTFGSYLCRCRNGYWLHENGHDCKEAGCAHKISSVEGTLASPNWPDKYPSRRECTWNISSTAGHRVKLTFNEFEIEQHQECAYDHLEMYDGPDSLAPILGRFCGSKKPDPTVASGSSMFLRFYSDASVQRKGFQAVHSTECGGRLKAEVQTKELYSHAQFGDNNYPSEARCDWVIVAEDGYGVELTFRTFEVEEEADCGYDYMEAYDGYDSSAPRLGRFCGSGPLEEIYSAGDSLMIRFRTDDTINKKGFHARYTSTKFQDALHMKK | 2
5 | 0.247 ± 0.26 nM | TLL2 CUB1-CUB2-EGF1 (domain or fragment, human, UniProt Q9Y6L7 351-617, looked up, mammalian tolloid like-2 (TLL-2), human; domains CUB1, CUB2 and EGF1; Cloned at OPPF-UK in pOPINTTGneo; also called TLL2-C1C2E1; C1C2E1 from TLL-2) CGETLQDTTGNFSAPGFPNGYPSYSHCVWRISVTPGEKIVLNFTSMDLFKSRLCWYDYVEVRDGYWRKAPLLGRFCGDKIPEPLVSTDSRLWVEFRSSSNILGKGFFAAYEATCGGDMNKDAGQIQSPNYPDDYRPSKECVWRITVSEGFHVGLTFQAFEIERHDSCAYDYLEVRDGPTEESALIGHFCGYEKPEDVKSSSNRLWMKFVSDGSINKAGFAANFFKEVDECSWPDHGGCEHRCVNTLGSYKCACDPGYELAADKKMCE | –
6 | 0.25 ± 0.02 nM | TLL2 CUB4-CUB5 (domain or fragment, human, UniProt Q9Y6L7 776-1005, looked up, mammalian tolloid like-2 (TLL-2), human; domains CUB4 and CUB5; Cloned at OPPF-UK in pOPINTTGneo; also called TLL2-C4C5; C4C5 from TLL-2) CAHKISSVEGTLASPNWPDKYPSRRECTWNISSTAGHRVKLTFNEFEIEQHQECAYDHLEMYDGPDSLAPILGRFCGSKKPDPTVASGSSMFLRFYSDASVQRKGFQAVHSTECGGRLKAEVQTKELYSHAQFGDNNYPSEARCDWVIVAEDGYGVELTFRTFEVEEEADCGYDYMEAYDGYDSSAPRLGRFCGSGPLEEIYSAGDSLMIRFRTDDTINKKGFHARYTST | –
7 | 0.278 nM | mTLD CUB1-CUB2-EGF1 (domain or fragment, UniProt P13497 322-588, looked up, mammalian tolloid (mTLD), product of the Bmp1 gene; domains CUB1, CUB2 and EGF1 (shared with BMP-1); Cloned at OPPF-UK in pOPINTTGneo; also called mTLD-C1C2E1; C1C2E1 from mTLD/BMP1) CGETLQDSTGNFSSPEYPNGYSAHMHCVWRISVTPGEKIILNFTSLDLYRSRLCWYDYVEVRDGFWRKAPLRGRFCGSKLPEPIVSTDSRLWVEFRSSSNWVGKGFFAVYEAICGGDVKKDYGHIQSPNYPDDYRPSKVCIWRIQVSEGFHVGLTFQSFEIERHDSCAYDYLEVRDGHSESSTLIGRYCGYEKPDDIKSTSSRLWLKFVSDGSINKAGFAVNFFKEVDECSRPNRGGCEQRCLNTLGSYKCSCDPGYELAPDKRRCE | –
